Experiments:
ACKR4-HA (human) [1] = target: T1, ACKR4-HA (human) (UniProt Q9NPB9)
T1 sequence: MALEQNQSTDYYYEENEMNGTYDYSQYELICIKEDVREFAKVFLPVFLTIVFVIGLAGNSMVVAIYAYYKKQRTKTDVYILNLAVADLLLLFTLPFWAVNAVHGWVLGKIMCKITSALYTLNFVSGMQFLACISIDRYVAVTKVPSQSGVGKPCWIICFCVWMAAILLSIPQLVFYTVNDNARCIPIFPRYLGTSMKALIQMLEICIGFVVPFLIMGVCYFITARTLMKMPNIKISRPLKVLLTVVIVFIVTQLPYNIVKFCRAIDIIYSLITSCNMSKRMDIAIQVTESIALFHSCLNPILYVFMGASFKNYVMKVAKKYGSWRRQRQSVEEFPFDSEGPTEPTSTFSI

ACKR4-HA (human) [2] = target: T1, ACKR4-HA (human); remark: listed apart in the source

Chain of smBiT-βarrestin2 (P32121 whole entry): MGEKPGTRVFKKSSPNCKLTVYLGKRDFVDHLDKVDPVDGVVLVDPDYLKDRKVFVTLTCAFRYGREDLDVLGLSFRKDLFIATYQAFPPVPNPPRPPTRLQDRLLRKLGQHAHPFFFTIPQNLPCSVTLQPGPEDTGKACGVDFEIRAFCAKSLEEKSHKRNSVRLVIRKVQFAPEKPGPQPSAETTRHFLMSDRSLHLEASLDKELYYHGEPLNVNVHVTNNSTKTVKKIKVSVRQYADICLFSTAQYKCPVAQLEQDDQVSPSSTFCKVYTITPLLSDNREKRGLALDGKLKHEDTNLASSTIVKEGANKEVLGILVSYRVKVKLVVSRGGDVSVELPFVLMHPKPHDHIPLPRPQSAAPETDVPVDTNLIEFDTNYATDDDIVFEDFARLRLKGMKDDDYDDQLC
Chain of smBiT-βarrestin1 (P49407 whole entry): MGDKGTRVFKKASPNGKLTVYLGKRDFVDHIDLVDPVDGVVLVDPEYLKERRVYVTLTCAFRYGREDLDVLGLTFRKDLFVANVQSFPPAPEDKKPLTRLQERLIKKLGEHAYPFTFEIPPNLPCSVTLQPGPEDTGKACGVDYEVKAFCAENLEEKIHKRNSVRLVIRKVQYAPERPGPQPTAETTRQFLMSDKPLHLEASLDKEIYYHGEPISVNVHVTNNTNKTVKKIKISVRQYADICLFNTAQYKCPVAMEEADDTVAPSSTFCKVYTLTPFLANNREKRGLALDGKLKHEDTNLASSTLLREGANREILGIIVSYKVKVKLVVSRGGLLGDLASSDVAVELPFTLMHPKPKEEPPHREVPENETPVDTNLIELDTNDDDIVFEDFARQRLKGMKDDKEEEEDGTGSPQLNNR

## smBiT-βarrestin1 (from UniProt P49407 1-418) (natural protein)
ACKR4-HA (human) [1]
  bystander NanoBiT (smBiT-βarrestin1 with lgBiT-CAAX) in HEK293: pre-association with the plasma membrane in the absence of CCL19, as compared to cells expressing native ACKR4 (times higher than native ACKR4): 2.9
ACKR4-HA (human) [2]
  bystander NanoBiT (smBiT-βarrestin1 with lgBiT-CAAX) in HEK293: CCL19-driven recruitment to the plasma membrane, as compared to native ACKR4 (% of native ACKR4): 42

## smBiT-βarrestin2 (from UniProt P32121 1-409) (natural protein)
ACKR4-HA (human) [1]
  bystander NanoBiT (smBiT-βarrestin2 with lgBiT-CAAX) in HEK293: pre-association with the plasma membrane in the absence of CCL19, as compared to cells expressing native ACKR4 (times higher than native ACKR4): 3.3
ACKR4-HA (human) [2]
  bystander NanoBiT (smBiT-βarrestin2 with lgBiT-CAAX) in HEK293: CCL19-driven recruitment to the plasma membrane, as compared to native ACKR4 (% of native ACKR4): 27

Source: paper PMC11610291
